# ± gives the uncertainty stated by the source.
# Experiment: protein stability index of a GFP-peptide fusion (yeast GPS) (PSI 1-4); higher = more stable; sorted into four equal gates, so the index is relative within each strain
# In short: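 The protein stability index of a peptide was calculated by multiplying its read frequency in each gate by that gate's number and adding the products. The peptides were tiled 17-residue stretches of yeast proteins, fused downstream of GFP on a Cherry-expressing plasmid and carried in yeast as a pooled library. Mid-log cultures in leucine-free medium were sorted into four equal gates by GFP/Cherry ratio, and each gate's plasmids were PCR-amplified and Illumina-sequenced.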
Sequence,protein stability index (doa10∆),protein stability index (pdr5∆),protein stability index (san1∆),protein stability index (ubr1∆)
LSRGYTCPGLSLTDVAF [ECM29],3.24 ± 0.12,3.19 ± 0.084,2.29 ± 0.11,2.68 ± 0.12
ESNNPSHDASRSLASFE [SIR4],2.97 ± 0.1,3.14 ± 0.12,3.02 ± 0.072,3.02 ± 0.17
DQKFGVPVRSFKGHSHI [ASC1],3.11 ± 0.092,3.19 ± 0.064,2.99 ± 0.07,3.25 ± 0.058
YKYGYDMPCDVLAKRMA [SCL1],2.51 ± 0.067,2.25 ± 0.049,2.61 ± 0.073,2.29 ± 0.058
DVAAKCKEVGITAVHVK [RPS14A],2.56 ± 0.057,2.81 ± 0.065,2.72 ± 0.062,2.62 ± 0.041
SVKSVKFPTRKIYMLYS [RPC34],,,,3.58 ± 0.25
NLQPASVINNYLREDQM [NUT1],2.61 ± 0.075,3.08 ± 0.099,2.82 ± 0.094,2.93 ± 0.14
TATGAASKSGKLTQKLV [CYT1],1.64 ± 0.092,1.62 ± 0.078,2.69 ± 0.11,1.83 ± 0.063
ILRKPGKDCKLQNLQRI [RRI2],3.12 ± 0.094,3.47 ± 0.14,3.14 ± 0.096,3.07 ± 0.13
LIQKGYLQRGDDGESYA [CDC53],3.68 ± 0.15,2.68 ± 0.1,3.34 ± 0.065,3.12 ± 0.066
KNVENTKNLSILTSKVN [DSN1],2.37 ± 0.061,2.36 ± 0.049,2.53 ± 0.077,2.51 ± 0.036
MTMNGIPVKLLNEAQGH [SMD3],3.2 ± 0.12,3.39 ± 0.16,2.76 ± 0.091,3.1 ± 0.11
YAKSEFDNVASVFMPLI [ECM29],3.04 ± 0.054,2.8 ± 0.049,3.08 ± 0.039,3.09 ± 0.046
SFNVKENQPFHGIKDIP [AAR2],2.73 ± 0.16,3.17 ± 0.19,2.98 ± 0.11,2.34 ± 0.21
FGSRVMIAKEVKTSPDA [FAS1],3.37 ± 0.12,2.76 ± 0.26,2.81 ± 0.27,3.49 ± 0.2
EDEGTLNVAEIITSGRD [ARP9],3.27 ± 0.22,3.21 ± 0.15,3.24 ± 0.079,3.29 ± 0.15
LVFQLAKNFSAQKRVVS [SRB8],1.69 ± 0.053,2.06 ± 0.072,1.86 ± 0.076,1.94 ± 0.058
SYKMIQLDAYGEKKVGS [SWP82],3.27 ± 0.093,3.37 ± 0.093,3.35 ± 0.075,3.02 ± 0.072
TDRQKKLLGVDMQSSVD [YLR018C/POM34],3.2 ± 0.057,3.08 ± 0.055,3.19 ± 0.043,3.15 ± 0.044
RIQKIISKRKEELEEEF [YIL149C/MLP2],3.13 ± 0.12,2.47 ± 0.13,3.02 ± 0.18,2.86 ± 0.13
INIAQMSACVGQQSVEG [RPO21],,,3.22 ± 0.17,3.07 ± 0.1
HLVSNELEQLSSEALEA [RPL10],1.21 ± 0.053,1.39 ± 0.042,1.3 ± 0.14,1.39 ± 0.031
VLLTFLQDELHKVSSQS [YCS4],3.54 ± 0.17,3.45 ± 0.2,2.95 ± 0.23,3.27 ± 0.13
QLFHNLISIHSRENNSE [YJL039C/NUP192],2.6 ± 0.079,2.61 ± 0.076,2.3 ± 0.11,2.88 ± 0.091

Sequence,protein stability index (doa10∆),protein stability index (pdr5∆),protein stability index (san1∆),protein stability index (ubr1∆)
THNSYEKACQVLKYMLL [RPN6],2.18 ± 0.076,2.44 ± 0.073,2.23 ± 0.087,3.26 ± 0.071
AVAEAYNNRSLLDFNTA [RPN6],3.16 ± 0.081,2.98 ± 0.077,3.11 ± 0.066,3.25 ± 0.11
NFQDLSYLSETLISRIS [YML103C/NUP188],2.38 ± 0.082,2.51 ± 0.079,2.04 ± 0.093,2.32 ± 0.074
YSPKQDEQKHNENENSR [RPO21],2.69 ± 0.059,2.54 ± 0.064,2.63 ± 0.07,2.67 ± 0.056
VPISTSQTNNSFLSGVK [SIR4],2.56 ± 0.054,2.73 ± 0.07,2.63 ± 0.067,2.95 ± 0.057
LYGVTICYNKKTEYVLN [REC8],1.3 ± 0.058,1.3 ± 0.14,1.14 ± 0.13,1.34 ± 0.062
RKKTEAVARLKSMNKSA [SNF2],1.68 ± 0.074,2.17 ± 0.085,2.23 ± 0.1,2.08 ± 0.065
GPVRENDILVLMESERE [RPS28A],2.61 ± 0.23,3.4 ± 0.083,3.26 ± 0.14,2.81 ± 0.092
DMDAQGRSDSNTEEKAE [YGL100W/SEH1],1.57 ± 0.038,1.67 ± 0.051,1.5 ± 0.14,1.4 ± 0.041
VRAVSITSFGFGQKGGQ [FAS2],2.92 ± 0.19,2.96 ± 0.23,1.74 ± 0.21,3.31 ± 0.27
ERELISNIEQTESLRVE [YIL149C/MLP2],3.34 ± 0.063,3.47 ± 0.078,3.18 ± 0.041,3.37 ± 0.07
EKSQEVEYVDPTVNRVP [RPN7],,,,3.74 ± 0.27
YGLFLKYHKEQFIKSNF [SRB8],2.15 ± 0.067,2.29 ± 0.045,1.97 ± 0.069,2.36 ± 0.054
NSDLEGKIRGVEDDLVT [SMC2],3.14 ± 0.094,3.33 ± 0.064,3.15 ± 0.067,3.24 ± 0.051
KKVKLAVLSYYKVDAEG [RPS31],1.62 ± 0.084,2.32 ± 0.082,2.52 ± 0.074,1.95 ± 0.068
LASKAARKSAPSTGGVK [HHT1],2.89 ± 0.15,3.12 ± 0.12,2.99 ± 0.076,3.05 ± 0.1
VQPPLDKFPYKKLELPK [SWP82],2.79 ± 0.074,2.11 ± 0.055,2.73 ± 0.061,2.93 ± 0.055
NFFQAPQDYVLERVKRI [YML031W/NDC1],2.81 ± 0.064,2.62 ± 0.045,2.9 ± 0.068,2.77 ± 0.036
SVLRDTLVAQNLKQANN [SMC4],2.68 ± 0.082,2.53 ± 0.06,2.48 ± 0.052,2.33 ± 0.035
RAGKYELVKSYSWLLFE [YJR042W/NUP85],1.62 ± 0.11,1.78 ± 0.08,1.18 ± 0.14,1.33 ± 0.062
EPFTILGAVAGLIPYPH [RET1],2.17 ± 0.063,2.13 ± 0.051,2.13 ± 0.078,1.83 ± 0.043
HPYLFEGAEPGPPYTTD [ISW2],3.04 ± 0.06,3.14 ± 0.066,3.07 ± 0.05,3.18 ± 0.053
ASDLVLIVIDVVEGVTF [SNU114],1.33 ± 0.041,1.58 ± 0.059,2.07 ± 0.1,2.38 ± 0.047
SSDGAYTEQFQHYKNNS [SSN2],2.99 ± 0.068,3.03 ± 0.056,3.02 ± 0.066,3.06 ± 0.05

Sequence,protein stability index (doa10∆),protein stability index (pdr5∆),protein stability index (san1∆),protein stability index (ubr1∆)
LMDDMSDISDLDDLGFL [RPN3],1.77 ± 0.062,1.81 ± 0.059,1.92 ± 0.091,1.77 ± 0.04
LRPRKDSKDGTTLNIKV [SMB1],,,3.18 ± 0.12,
AALGMGLCMLGTGKPEA [RPN2],3.46 ± 0.13,3.32 ± 0.094,3.44 ± 0.066,3.36 ± 0.088
KEPVDDKDVKAKYETSI [FAS2],3.2 ± 0.086,3.21 ± 0.12,2.43 ± 0.12,2.83 ± 0.13
DAKKCIAACTGVPDDKW [FAS1],2.63 ± 0.092,2.35 ± 0.058,2.16 ± 0.11,2.78 ± 0.071
EDIIANYASVYPVVEVE [RRP43],2.47 ± 0.098,2.77 ± 0.092,2.85 ± 0.14,2.72 ± 0.079
LSALDHYERTQTKENKR [RPN8],2.91 ± 0.077,2.82 ± 0.087,2.71 ± 0.073,2.68 ± 0.057
GCGNTQPTIRKDGLKLV [RPO21],2.42 ± 0.084,2.11 ± 0.056,2.3 ± 0.17,2.41 ± 0.045
QKGTIGITYRREDMPFT [RPB2],3.01 ± 0.1,2.68 ± 0.08,2.8 ± 0.08,2.9 ± 0.069
SFTPSTVPNINFSGLNG [YOR098C/NUP1],2.59 ± 0.066,2.68 ± 0.068,2.83 ± 0.056,2.97 ± 0.05
LGASFGQQQQQSQTNAF [YGL172W/NUP49],2.09 ± 0.11,2.75 ± 0.075,2.07 ± 0.1,2.19 ± 0.075
KMMSFQANPTEESISKF [RPB5],3.02 ± 0.077,3.17 ± 0.076,2.4 ± 0.2,3.15 ± 0.12
YDIVKFLTVSKLWAEII [GRR1],2.05 ± 0.041,2.59 ± 0.038,2.18 ± 0.048,2.44 ± 0.032
LNLINAKLWFYIYLSHE [RPN3],1.43 ± 0.059,1.23 ± 0.056,1.28 ± 0.095,1.44 ± 0.065
EVKTPKIPLFTFAKSKN [SIR4],2.77 ± 0.054,2.98 ± 0.06,2.57 ± 0.043,2.81 ± 0.042
TNYEMSYWQKSYFKNSV [LIN1],2.07 ± 0.038,2.09 ± 0.036,2.09 ± 0.061,1.99 ± 0.037
PNGHISTKKIQVATKYA [YMR129W/POM152],1.86 ± 0.082,2.24 ± 0.05,1.75 ± 0.067,2 ± 0.043
IGSGAMSPLECRNILGV [RPP1],1.93 ± 0.03,2.43 ± 0.046,2.19 ± 0.064,2.38 ± 0.034
AFSPLTTTRIQSQQAQP [MED2],2.7 ± 0.055,2.83 ± 0.044,2.52 ± 0.061,2.8 ± 0.036
TIVQLCKKKEMSQYQST [YIL149C/MLP2],1.88 ± 0.063,2.14 ± 0.061,1.76 ± 0.091,1.8 ± 0.052
GMCQLYFWHKIWRKVPG [SNU114],1.97 ± 0.064,1.8 ± 0.057,2.12 ± 0.091,2.14 ± 0.048
QIKGLQWMVSLFNNHLN [SNF2],1.79 ± 0.12,1.74 ± 0.097,1.4 ± 0.14,1.36 ± 0.058
VQMAKILRKELSEEKEV [MCD1],3.37 ± 0.21,3.17 ± 0.27,2.9 ± 0.12,

# From the supplement of paper PMC9732359
